Reference: US20150284453A1, “METHOD OF PROTECTING CARDIAC FUNCTION” (Declmmune Therapeutics, Inc., priority 2012, published 2015)

What was measured:
Assay type in all cases: in vivo
[1] = tested on: swine model of myocardial infarction; assay: Myocardial infarct size by Evan's blue/TTC staining, swine model of myocardial infarction (1 h LAD occlusion, 5 d reperfusion); details: 5d post-reperfusion, TTC staining; i.v. N2 4.6 mg/kg 5 min or murine 21G6 mAb 2 mg/kg 30 min prior to reperfusion
Procedure: FIG. 2A to 2C are plots showing that N2 peptide and murine 21G6 mAb reduce infarct size in a swine model of myocardial infarction. Swine were subjected to 1 h LAD occlusion and 5 d reperfusion. Prior to reperfusion either saline, N2 (4.6 mg/kg), or murine 21G6 mAb (2 mg/kg) was injected i.v. into the swine. Following 5 d reperfusion, myocardial sections were stained with Evan's blue and TTC. (A) Myocardial infarct size expressed as a percentage of the left ventricle (LV). (B) Percentage of area at risk (AAR) to the LV. (C) Myocardial infarct size expressed as a percentage of the AAR. # represents p<0.05; ## represents p<0.01; ### represents p<0.001. Each symbol represents data from one animal. (Note: Due to poor perfusion with Evan's blue dye in one animal, n=5 in panels B and C). […] Saline-treated animals developed approximately a 20% infarct of the left ventricle as assessed by TTC staining at 5d post-reperfusion as predicted.

[2] = tested on: swine model of myocardial infarction; assay: Serum cardiac troponin-T (cTnT) levels, swine model of myocardial infarction; details: N2 4.6 mg/kg or m21G6 2 mg/kg i.v. prior to reperfusion; for reduction of peak serum cTnT levels as compared to saline controls: 8-120 h post-reperfusion; for reduction of cTnT AUC values as compared to saline controls: five day reperfusion period
Procedure: FIGS. 3A and 3B are plots showing the effect of N2 peptide and murine 21G6 mAb (m21G6) on serum cardiac troponin-T (cTnT) levels. Swine were subjected to 1 h LAD occlusion and 5 d reperfusion. Prior to reperfusion either saline, N2 (4.6 mg/kg), or m21G6 (2 mg/kg) was injected i.v. into the swine. Serum samples were taken at several time points as described in text and analyzed for cTnT. (A) Peak cTnT levels. (B) cTnT levels over 5d reperfusion. # represents p<0.05; ## represents p<0.01. Each symbol represents data from one animal. Cardiac troponin-T (cTnT), a well-established marker for cardiac tissue injury, from 8-120 h post-reperfusion, was also analyzed. […] Saline-treated animals developed approximately a 20% infarct of the left ventricle as assessed by TTC staining at 5d post-reperfusion as predicted • Serial EKGs to document ST elevation • Angiogram q20 min to confirm complete occlusion • Lidocaine and defibrillation as needed • Administration of control vs. N2 peptide 5 minutes prior to reperfusion or mAb 21G6 30 minutes before reperfusion • Measure trend in cardiac enzymes (CK, cTnT) • Cardiectomy on Day 5 or Day 21 via cardioplegic arrest • LAD ligation at site of occlusion followed by injection of Evans blue dye via aortic cannula gives estimate of Area At Risk (AAR) • Incubation of transverse sections in TTC for 15 min at 37° C. • Calculate % infarction by computerized planimetry • 21G6 Alexa 568(1 mg/ml) infusion was initiated 2 min prior to reperfusion at ≈1 m1/min for ≈30 min via coronary catheter (results shown in FIG. 1 showing localization of the antibody to the injured left ventricle and not to the uninjured right ventricle) • Heart was perfused with cardioplegic solution 1 h post-ischemia, harvested, sectioned, and punch biopsies taken in the area at risk and in right ventricle • Sections were stained with anti-swine CD31 FITC (Serotec) 1/20 dilution • Using a fluoroscopically guided balloon catheter approach, the left anterior descending coronary artery (LAD) was occluded for 60 min at a defined point distal to the 2nd and 3rd diagonal branches. Saline-treated animals developed approximately a 20% infarct of the left ventricle as assessed by TTC staining at 5d post-reperfusion as predicted.

[3] = tested on: porcine model of myocardial infarction; assay: Cardiac function (LVEF, fractional shortening) by echocardiography, porcine model of myocardial infarction; details: for increase in EF compared to saline controls at the same time point: 21 days post-reperfusion, 3D TTE, n of 3 per group; for ejection fraction (EF) 21 d post-reperfusion: Quinones method; for ejection fraction (EF) 21 d post-reperfusion / LVEF at baseline: n=3/group; for recovery of cardiac function by fractional shortening (FS) compared to baseline: 21d reperfusion period; for LVEF at baseline: baseline (prior to occlusion procedure)
From the text: FIG. 4A to 4C are graphs showing measurements of cardiac function by echocardiography. (A) Non-corrected % LVEF as measured by 2D TTE at 21d post-reperfusion compared to baseline using Quinones method (described below in the Examples section). (B) % LVEF as measured by 3D TTE at 21d post-reperfusion. (C) Fractional shortening as measured by 2D TTE at 21d post-reperfusion compared to baseline. # represents a p<0.05. n=3/group.
To determine the effect of N2 peptide and the 21G6 antibody treatment on cardiac function, echocardiography was employed. Echocardiography is widely accepted for evaluation of cardiac function and is utilized in emergency and operating rooms as well as intensive care departments in most hospitals. Ventricular function as assessed by echocardiography is accompanied by low intra-observer and inter-observer variability and assessment of left ventricular ejection fraction remains the standard of care in clinical practice. In addition, fractional shortening (FS), another measure of left ventricular function, was also calculated based on two-dimensional (2D) measurements at all time points measured at mid-ventricle and is defined as the difference between end-diastolic and end-systolic dimensions divided by end-diastolic dimension.
For animals in which functional data was generated (N2: n of 3, murine 21G6 mAb: n of 3, Saline: n of 3), cardiac imaging was performed via transthoracic echocardiography (TTE) at baseline (prior to occlusion procedure), and then up to 21d following reperfusion. For baseline TTE images were obtained using a high-frequency 2D probe and a Philips iE33 xMATRIX scanner (Andover, Mass.). Prior to sacrifice at 21 days, both 2D and 3D epicardial echocardiography images were obtained after median sternotomy was performed. 3D volumetric data sets were ECG-gated from 4-7 consecutive heartbeats. Additionally, 3D left ventricular volumes and ejection fractions were computed from the epicardial 3D datasets.
Prior to the occlusion procedure, a baseline TTE image was recorded. Afterwards, TTE was performed. Animals were treated in an identical manner as in the 5 day study for the catheterization procedure except that animals were maintained for an additional 16 days. The echocardiographer was blinded to the treatment schedule.
At baseline, saline, N2- and murine 21G6 mAb -treated animals had LVEFs of 53%, 52.6%, and 51%, respectively.
• Intravenous amiodarone infusion (1 mg/min) • Systemic heparinization (˜150 units/kg) • Percutaneously access of LAD via right (R) femoral artery • Occlusion mid-LAD with balloon catheter for 60 min as follows: Using a fluoroscopically guided balloon catheter approach, the left anterior descending coronary artery (LAD) was occluded for 60 min at a defined point distal to the 2nd and 3rd diagonal branches. […]

Question: For LMKNMDPLNDNV [N2 peptide], which “reduction of infarct size as a percentage of the area at risk (AAR)” value [1] is on record?
Answer: 31%

Question: What about the “reduction of peak serum cTnT levels as compared to saline controls” value [2] of the same molecule?
Answer: no effect

Question: And the “reduction of cTnT AUC values as compared to saline controls” value [2]?
Answer: no effect

Question: What about the “increase in EF compared to saline controls at the same time point” value [3] of the same molecule?
Answer: 29%

Question: What about the “ejection fraction (EF) 21 d post-reperfusion” value ([3]; 2D TTE) of the same molecule?
Answer: 52.0%

Question: And the “recovery of cardiac function by fractional shortening (FS) compared to baseline” value ([3]; 2D TTE)?
Answer: 98.8%

Question: And the LVEF at baseline ([3]; 2D TTE)?
Answer: 52.6%

B1: murine 21G6 mAb: murine anti-N2 monoclonal antibody from hybridoma ATCC Accession Number PTA-9393 (antibody, V domains shown)
VH: QVQLQQPGAELVKPGASVKLSCKASGYTFTSYYMYWVKQRPGQGLEWIGGINPSNGGTNFNEKFKSKATLTVDKSSSTAYMQLSSLTSEDSAVYYCTRWGYDREWFAYWGQGTLVTVSA
VL: DIVMTQAAPSVPVTPGESVSISCRSSKSLLHSNGNTYLYWFLQRPGQSPQVLIYRMSNLASGVPDRFSGSGSGTAFTLRISRVEAEDVGVYYCMQHLEYPFTFGSGTKLEIKR
Question: For B1, which “reduction of infarct size as a percentage of the area at risk (AAR)” value [1] is on record?
Answer: 49%

Question: And the “reduction of peak serum cTnT levels as compared to saline controls” value [2]?
Answer: 60%

Question: And the “reduction of cTnT AUC values as compared to saline controls” value [2]?
Answer: 47%

Question: And the “increase in EF compared to saline controls at the same time point” value [3]?
Answer: 21%

Question: What about the “recovery of cardiac function (LVEF at 21 d relative to baseline)” value ([3]; 21 d post-reperfusion vs baseline, 2D TTE, saline-treated 74.7%) of the same molecule?
Answer: 98.8%

Question: What about the “ejection fraction (EF) 21 d post-reperfusion” value ([3]; 2D TTE) of the same molecule?
Answer: 50.4%

Question: And the “recovery of cardiac function by fractional shortening (FS) compared to baseline” value ([3]; 2D TTE)?
Answer: 99.4%

Question: What about the LVEF at baseline ([3]; 2D TTE) of the same molecule?
Answer: 51%
